The text below walks through data of patent US20210269549A1, “ANTI-SAS1B ANTIBODIES, ASSOCIATED METHODS OF USE, AND COMPOSITIONS AND METHODS FOR DETECTING AND TREATING CANCER” (UNIVERSITY OF VIRGINIA PATENT FOUNDATION, priority 2015, published 2021).

Numbering of substitutions follows the chain as printed. Entries after “also recorded” stand apart in the source; their conditions may differ.

First the molecules themselves.
T1: human SAS1B protein with a C-terminal V5 tag expressed by HEK293T cells (Homo sapiens, UniProt Q6HA08)
T1 construct: expressed in transfected cells; host or cells: HEK293T
T1 sequence (Q6HA08 24-431): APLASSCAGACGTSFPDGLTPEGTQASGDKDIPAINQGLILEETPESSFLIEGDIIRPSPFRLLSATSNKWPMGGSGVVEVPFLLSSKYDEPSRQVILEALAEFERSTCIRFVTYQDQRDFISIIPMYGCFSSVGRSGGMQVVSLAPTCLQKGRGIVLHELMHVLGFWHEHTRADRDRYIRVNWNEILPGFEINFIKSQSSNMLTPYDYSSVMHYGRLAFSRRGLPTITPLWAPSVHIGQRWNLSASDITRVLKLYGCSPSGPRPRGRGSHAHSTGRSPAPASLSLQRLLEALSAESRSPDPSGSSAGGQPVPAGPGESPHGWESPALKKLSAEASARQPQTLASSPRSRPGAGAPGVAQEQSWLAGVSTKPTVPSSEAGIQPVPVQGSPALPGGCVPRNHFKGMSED

T2: human SAS1B (Homo sapiens, UniProt Q6HA08)
T2 construct: made in house; host or cells: E. coli
T2 sequence (Q6HA08 24-431): T1 sequence (Q6HA08 24-431)

T3: full-length SAS1B splice variant A polypeptide (Homo sapiens, UniProt Q6HA08)
T3 construct: made in house
T3 sequence (Q6HA08 24-431): T1 sequence (Q6HA08 24-431)

B1: SB2: mouse anti-human SAS1B monoclonal antibody, IgG2b; VH SEQ ID NO:14, VL SEQ ID NO:15 (antibody, listed as Mus musculus, V domains shown)
VH: EVQLQQSGPELVKPGSSVKISCKASGYTFTDYNMVWVKQSHGKSLEWIGAVNPNNGGTSYNQKFKGKATLTVDKSSSTAYMELRSLTSEDSAVYYCVPNWDWFAYWGQGTLVTVSA
VL: DVLMTQTPLSLPVSLGDQASISCRSSQSLVHSNGNTYLEWYLQKPGQSPNLLIYKVSNRFSGVPDRFSGSGSGTDFTLKISRVEAEDLGVYYCFQGSHVPFTFGSGTKLEIK
B2: SB5: mouse anti-human SAS1B monoclonal antibody, IgG2b; VH SEQ ID NO:16, VL SEQ ID NO:18 (antibody, listed as Mus musculus, V domains shown)
VH: B1 VH with A24P, V37M, V51I, S59T, V97A
VL: B1 VL with T7I, L29I, V30L, N50K
B3: SB3: mouse anti-human SAS1B monoclonal antibody, IgG2b; VH SEQ ID NO:14, VL SEQ ID NO:15 (antibody, listed as Mus musculus, V domains shown)
VH: B1 VH
VL: B1 VL
B4: SB4: mouse anti-human SAS1B monoclonal antibody, IgG2a; VH SEQ ID NO:16, VL SEQ ID NO:17 (antibody, listed as Mus musculus, V domains shown)
VH: B1 VH with A24P, V37M, V51I, S59T, V97A
VL: B1 VL with L29I, V30L, N50K
B5: SB1: mouse anti-SAS1B monoclonal antibody, IgG2a; VH SEQ ID NO:12, VL SEQ ID NO:13 (antibody, listed as Mus musculus, V domains shown)
VH: EVQLQQSGPELVKPGSSVKISCKASGYTFTDYNMDWVKQSHGKSLEWIGAINPNNGGTSYNQKFKGKATLTVDKSSSTAYMELRSLTSEDSAVYYCATNEYWGQGTTLTVSS
VL: NIVMTQSPKSMSMSVGERVTLSCKASENVGTYVSWYQQKPEQSPKLLIYGASNRYTGVPDRFTGSGSATDFTLTISSVQAEDLADYHCGQSYSYPWTFGGGTKLEIK

In the first assay the target is T1, human SAS1B protein with a C-terminal V5 tag expressed by HEK293T cells. Put plainly: Double immunofluorescence on fixed and permeabilized HEK293T cells transfected with SAS1B SV-A with V5 tag. The class given is cell-based. As to conditions: SV-A transfected HEK293T, PFA fixed, methanol permeabilized, mAbs at 10 ug/ml. On the procedure: Experiments were conducted to determine the specificity of anti-human SAS1B monoclonal antibodies SB1, SB2, SB3, SB4, SB5, SB6 and SB7 against the human SAS1B protein with a C-terminal V5 tag expressed by HEK293T cells by double immuno-fluorescence from two different SAS1B epitopes. HEK293T cells were seeded at ˜100,000 per well of a 24 well plate containing a lysine-coated 12 mm coverslip. 24 hours later, the cells were transfected with 1 ug of SV-A plasmid with 2 ul of TURBOFECT® transfection reagent followed by no change of media. 48 h later the cells were PFA (paraformaldehyde) fixed and methanol permeabilized for an IF study as follows.
The cells were removed from cell culture media and fixed in 4% PFA in PBS, 300 ul for 15 min. The cells were washed in 1 ml PBS in wells for 3 times and permeabilized in methanol (100%) for 15 min in 0.5 ml at RT. The cells were washed in PBS 1 ml for 3 times and blocked in complete culture media (DMEM) with 5% normal goat serum (NGS) for 30 min (i.e. BB, blocking buffer). The first antibody in BB was added for 1 h at 10 ug/ml for mouse monoclonal antibodies (SB1, SB2, SB3, SB4, SB5, SB6, SB7) and 5 ug/ml for anti-V5 DYLIGHT® 488 (green) rabbit (a rabbit polyclonal antibody to V5 tag). The cells were washed in PBS 3 times. The second antibody in BB (Goat anti-mouse Alexa Flour 594, red) was added for 1 h at 5 ug/ml (1:200 dilution). The cells were washed in PBS 3 times. The cells were mounted in slow fade DAPI 3 ul and stored at 4° C. before confocal imaging.
Take B1: the “IF signal / colocalization with V5-tag epitope signal” value (shortened to “IF signal / colocalization”) is given as “colocalize (merge) with V5-tag epitope signal”.
B2: the “IF signal / colocalization” value was “colocalize (merge) with V5-tag epitope signal”.
Consider B3, for which the “IF signal / colocalization” value is reported as “colocalize (merge) with V5-tag epitope signal”.
For the molecule B4, the “IF signal / colocalization” value was “colocalize (merge) with V5-tag epitope signal; also recorded: recognizing native SAS1B in fixed cells”.
Still for that read-out and setting: the value for B5 was “lack of a signal”.

The same assay, now with this note: mock transfected.
B1: the “Signal on mock transfected HEK293T cells” value is reported as “no V5 signal or SAS1B signal”.
Turning to B2, the “Signal on mock transfected HEK293T cells” value was “no V5 signal or SAS1B signal”.
As for B3, the “Signal on mock transfected HEK293T cells” value is listed as “no V5 signal or SAS1B signal”.
As for B4, the “Signal on mock transfected HEK293T cells” value is given as “no V5 signal or SAS1B signal”.
B5: the “Signal on mock transfected HEK293T cells” value is “no V5 signal or SAS1B signal”.

The target in the next assay is T2, human SAS1B. Briefly: Immunoprecipitation of SAS1B from HEK293T cells transfected with SAS1B. The class given is binding.
Conditions: not given
On the procedure: HEK293T cells were transfected with human SAS1B full length cDNA for 66 h. Immuno-precipitation of SAS1B was completed with SB1, SB2, SB4 and SB5 monoclonal antibodies. Following SAS1B immunoprecipitation, detection was completed with mouse anti-His tag mAb at C-terminus. Immunoprecipitated samples were analyzed by protein staining with Coomassie staining. Immunoprecipitated sample was also analyzed by MS/MS analysis. VH and VL chain CDR1-3 regions were sequenced for the confirmed anti-SAS1B mAbs. Immunoprecipitation was performed with N-terminal mAbs from transfected cells extracted with RIPA/protease inhibitor. Detection of the SAS1B immunoprecipitation product was completed with HRP peroxidase conjugated mouse anti-His mAb at 1:3000 or 1:5000 dilution. HEK293T cells were seeded at 250,000. The cells were transfected with […] of SAS1B-SVA plasmid into each of the two T-75 flasks (at ˜90% confluency) for ˜66 h at 37 C and 5% CO2. Following transfection, two saline washes were completed with 1×HBSS. Lysed cells were incubated with RIPA+protease inhibitor for one hour on ice with mixing to ensure homogenous lysate and supernatant used for IP (RIPA: 25 mM Tris-HCl (pH 7.6), 150 mM NaCl, 1% NP-40, 1% sodium deoxycholate, 0.1% SDS). For the immunoprecipitation, 3 mg magnetic bead coupled protein G were suspended and incubated with […] of each SAS1B monoclonal antibody for 10 minutes. The magnetic bead/antibody complex was washed with PBST once, followed by incubation with […] antigen extract for 20 min. The post-immunoprecipitation sample was saved for comparison. Three 200 mL washes with washing buffer+protease inhibitor were completed. The fourth wash used only 100 mL of wash buffer+protease inhibitor. The magnetic beads were transferred to a new micro-centrifuge tube. 1× Lamelli buffer was added to bead/antibody/antigen complex for subsequent analysis. The sample was boiled at 98° C. for 10 min in 1× Lamelli buffer and the supernatant transferred to a new tube. The immunoprecipitation sample was analyzed by western blot and Coomassie blue staining. The SDS-PAGE samples (pre-IP, IP, and post IP extracts) were resolved with 12% TGX Criterion gels at 30 milliamps for 1 hr. Coomassie stain was added to determine the profile of IP samples. Following SDS-PAGE resolution, bands were transferred to nitrocellulose membrane at 1 Amp for 1 h at 5° C. The membrane was blocked with 5% dry milk/PBST, and incubated with mouse anti-His monoclonal antibody conjugated with HRP for 1 hr at RT at 1:3000 or 1:5000 dilution. The membranes were imaged with TMB solution.
A unique ˜52 kD band was recovered in SB5 IP. SB5 (IgG2b) has a different isotype than SB1 (IgG2a), and 3A7 (IgG1). The ˜52 kD band from the SB5 immunoprecipitation was isolated, restained with Coomassie blue and submitted for MS/MS to verify protein identity. The MS/MS nanospray ion source was operated at 2.5 kV. The digest was analyzed using the rapid switching capability of the instrument acquiring a full screen mass spectrum to determine peptide molecular weights followed by product ion spectra to determine amino acid sequence in sequential scans. This mode of analysis produces about 20,000 MS/MS spectra of ions ranging in abundance over several orders of magnitude. Not all MS/MS spectra are derived from peptides. The data were analyzed using the Sequest search algorithm against Uniprot Human and SwissProt.
B2: the “Depletion of SAS1B in post IP sample compared to starting material” value (from here on “Depletion … compared to starting material”) is “relative depletion of antigen in post IP samples” and the “MS/MS analysis of the IP sample (~52 kD band)” value is “confirmed the specificity of the mAb for Human SAS1B protein”.
In the case of B4, the “Depletion … compared to starting material” value is given as “clear relative reduction of SAS1B”.
Take B5: the “Depletion … compared to starting material” value was “relative depletion of antigen in post IP samples”.

Staying with this assay, now noted: HEK293T extract, western blot detection with anti-His mAb.
For the molecule B1, the “Pull down (immunoprecipitation) of SAS1B” value is given as “pulled down recombinant SAS1B”.
On to B2, for which the “Pull down (immunoprecipitation) of SAS1B” value was “pulled down; also recorded: immunoprecipitate “native” SAS1B”.
Same read-out and setting: for B3 the value was “immunoprecipitate “native” SAS1B”; for B4, “pulled down recombinant SAS1B; also recorded: immunoprecipitate “native” SAS1B”; for B5, “pulled down”.

In the next assay the target is T3, full-length SAS1B splice variant A polypeptide. Put plainly: Western blot with mammalian cell-expressed recombinant SAS1B, full length. The class given is binding.
Conditions: not given
On the procedure:
SAS1B monoclonal antibodies were analyzed with mammalian cell-expressed recombinant SAS1B by western blotting.
For B1, the “Reaction with full-length SAS1B splice variant A polypeptide” value (“Reaction” below) is listed as “reacted with the full-length SAS1B splice variant A polypeptide”.
For the molecule B2, the “Reaction” value is “reacted with the full-length SAS1B splice variant A polypeptide”.
B3: the “Reaction” value is “reacted with the full-length SAS1B splice variant A polypeptide”.
As to B4, the “Reaction” value is listed as “reacted with the full-length SAS1B splice variant A polypeptide”.
Same read-out and setting: for B5 the value was “reacted with the full-length SAS1B splice variant A polypeptide”.
